Reference: US20120093799A1, “RECOMBINANTLY MODIFIED PLASMIN” (priority 2007, published 2012)

What was measured:
[1] = amidolytic activity with plasmin substrate S-2251, steady-state kinetics; assay type: biochemical; details: substrate S-2251, PBS buffer, pH 7.4, 25° C.
Protocol: The amidolytic activity of (TAL6003)-plasmin was examined using the plasmin substrate D-Val-Leu-Lys-p-nitroanilide (S-2251) (DiaPharma, West Chester, Ohio).
(§1) Correcting kcat for percent active sites, a kcat of about 725 min^−1 was determined. This value was very close to the value determined in the same assay for full-length plasmin, 820±23 min^−1 and for micro-plasmin (lacking all five kringles), 795±24 min^−1.

[2] = pNPGB active site titration; assay type: biochemical
Protocol: as §1

[3] = molecular target: T1, α2-antiplasmin (Homo sapiens, UniProt P08697); assay: rate of inhibition by α2-antiplasmin (method of Wiman and Collen, S-2251 activity at time points); assay type: biochemical; details: 22° C. in PBS buffer, pH 7.4
T1 sequence (P08697 40-491): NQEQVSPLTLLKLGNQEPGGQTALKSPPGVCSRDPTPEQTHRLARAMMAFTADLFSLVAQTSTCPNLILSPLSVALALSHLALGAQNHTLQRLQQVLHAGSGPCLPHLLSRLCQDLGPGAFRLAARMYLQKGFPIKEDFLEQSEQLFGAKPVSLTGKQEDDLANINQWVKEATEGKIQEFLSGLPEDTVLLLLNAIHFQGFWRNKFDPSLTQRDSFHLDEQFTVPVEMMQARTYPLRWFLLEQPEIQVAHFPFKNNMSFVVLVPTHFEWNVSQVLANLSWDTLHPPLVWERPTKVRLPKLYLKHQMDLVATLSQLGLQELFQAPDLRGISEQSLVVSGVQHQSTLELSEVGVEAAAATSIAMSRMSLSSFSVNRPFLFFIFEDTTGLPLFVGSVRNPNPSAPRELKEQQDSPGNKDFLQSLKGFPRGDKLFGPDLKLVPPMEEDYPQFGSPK
Protocol: The rate of inhibition of (TAL6003)-plasmin by α2-antiplasmin was determined to be 1.8±0.06×10^7 M^−1 s^−1 using the method of Wiman and Collen (Wiman, B. and D. Collen, Eur. J. Biochem. 84: 573-578 (1978)) in which plasmin and α2-antiplasmin are mixed then assayed for S-2251 activity at specific time points (Table 3).
Literature values are taken from Anonick, et al., Thrombosis Res. 59: 449 (1990). All rates were measured according to the methods published in Anonick, et al.

[4] = amidolytic activity with plasmin substrate S-2251, steady-state kinetics; assay type: biochemical; details: S-2251, PBS, pH 7.4, 25° C.; before correction for percent active sites
[5] = stability and formulation pH; assay type: physicochemical
Description: As shown previously for plasmin by Novokhatny et al., J. Thromb. Haemost. […] When mixed with plasma or neutral pH buffers, (TAL6003)-plasmin is quickly re-activated.

- rate of inhibition by α2-antiplasmin [3]: 1.8±0.06×10^7 M^−1 s^−1
B1: (TAL6003)-plasmin: two-chain active enzyme obtained by streptokinase activation of (TAL6003)-plasminogen (protein)
chain: MRDVVLFEKKVYLSECKTGNGKNYRGTMSKTKNGITCQKWSSTSPHRPRFSPATHPSEGLEENYCRNPDNDPQGPWCYTTDPEKRYDYCDVPQCAAPSFDCGKPQVEPKKCPGRVVGGCVAHPHSWPWQVSLRTRFGMHFCGGTLISPEWVLTAAHCLEKSPRPSSYKVILGAHQEVNLEPHVQEIEVSRLFLEPTRKDIALLKLSSPAVITDKVIPACLPSPNYVVADRTECFITGWGETQGTFGAGLLKEAQLPVIENKVCNRYEFLNGRVQSTELCAGHLAGGTDSCQGDSGGPLVCFEKDKYILQGVTSWGLGCARPNKPGVYVRVSRFVTWIEGVMRNN
modifications: Polypeptide having a single N-terminal kringle domain homologous to a kringle domain of a native human plasminogen
- Km [1]: 141 µM
- percent of functional active sites [2]: 67%
- kcat for the preparation [4]: about 725 min−1
- storage stability in the final formulation ([5]; pH 3.6, acidified with acetic acid-saline, low buffering capacity): allows safe storage of active plasmins for prolonged periods of time
- stability at physiological pH ([5]; physiological pH): prone to auto-degradation
